Data taken from paper PMC9363494.

What was measured:
full-length α-synuclein = full-length α-synuclein (UniProt P37840); experiment: NMR titration; 1H-15N HSQC of 0.3 mM 15N-enriched FL- or CT-α-syn titrated with PDI (mole ratios 10:1 to 1:1, 0-300 μM PDI); 20 mM HEPES, 100 mM NaCl, 5 mM TCEP, pH 7.0, 10% D2O, 15 °C; KD from fits of the average CSPs of residues in segment 1 and in segment 2
Y39E-α-syn = Y39E-α-syn (UniProt P37840)

KD of segment 1 (full-length α-synuclein) [µM]	KD of segment 2 (full-length α-synuclein) [µM]	elongation rate constant (k) of aggregation of Y39E-α-syn with PDI, thioflavin T fluorescence (without PDI: ND, plateau was not reached) (Y39E-α-syn)	half-time (t1/2) of aggregation of Y39E-α-syn with PDI, thioflavin T fluorescence (without PDI: ND, plateau was not reached) (Y39E-α-syn) [h]	lag time (tlag) of aggregation of Y39E-α-syn with PDI, thioflavin T fluorescence (without PDI: ND, plateau was not reached) (Y39E-α-syn) [h]	Substance
700	400	–	–	–	protein disulfide isomerase, P07237 18-508 (enzyme; other documents disagree on this pair)
–	–	0.21	46	36	protein disulfide isomerase (from UniProt P07237 18-508) (enzyme)
